Experimental data published in PMC3753675.

T1: GST-hHSF1 (human) (UniProt Q00613)
T1 sequence: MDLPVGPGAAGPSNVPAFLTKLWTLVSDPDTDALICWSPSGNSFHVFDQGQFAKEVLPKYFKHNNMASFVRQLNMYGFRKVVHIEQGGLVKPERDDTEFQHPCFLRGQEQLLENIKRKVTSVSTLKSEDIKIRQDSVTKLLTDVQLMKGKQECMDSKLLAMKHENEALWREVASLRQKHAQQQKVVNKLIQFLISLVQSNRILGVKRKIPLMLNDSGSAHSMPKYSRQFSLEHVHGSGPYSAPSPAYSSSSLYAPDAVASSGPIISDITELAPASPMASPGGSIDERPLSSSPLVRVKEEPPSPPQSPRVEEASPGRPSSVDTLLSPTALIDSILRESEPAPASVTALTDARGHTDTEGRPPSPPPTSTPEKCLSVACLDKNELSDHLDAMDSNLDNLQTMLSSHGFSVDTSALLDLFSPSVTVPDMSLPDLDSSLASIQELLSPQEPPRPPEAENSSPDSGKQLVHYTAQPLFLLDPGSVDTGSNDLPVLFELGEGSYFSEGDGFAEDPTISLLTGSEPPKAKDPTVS

T2: GST-hHSF2 (human) (UniProt Q03933)
T2 sequence: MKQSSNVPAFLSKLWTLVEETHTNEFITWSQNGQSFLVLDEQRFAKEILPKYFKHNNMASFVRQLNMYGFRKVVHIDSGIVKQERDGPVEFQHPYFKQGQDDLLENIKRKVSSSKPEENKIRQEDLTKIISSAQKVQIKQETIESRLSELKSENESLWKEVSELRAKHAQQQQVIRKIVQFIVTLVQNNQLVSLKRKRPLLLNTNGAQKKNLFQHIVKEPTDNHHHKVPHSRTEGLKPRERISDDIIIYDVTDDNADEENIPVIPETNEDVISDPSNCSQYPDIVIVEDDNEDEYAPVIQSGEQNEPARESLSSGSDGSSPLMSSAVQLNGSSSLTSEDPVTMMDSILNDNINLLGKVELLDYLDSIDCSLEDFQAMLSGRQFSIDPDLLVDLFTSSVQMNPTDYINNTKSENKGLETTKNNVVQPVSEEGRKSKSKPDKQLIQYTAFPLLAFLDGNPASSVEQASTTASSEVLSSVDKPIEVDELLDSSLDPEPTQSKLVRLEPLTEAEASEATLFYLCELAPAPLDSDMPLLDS

T3: dHSF (Drosophila melanogaster, UniProt P22813 1-691)
T3 sequence: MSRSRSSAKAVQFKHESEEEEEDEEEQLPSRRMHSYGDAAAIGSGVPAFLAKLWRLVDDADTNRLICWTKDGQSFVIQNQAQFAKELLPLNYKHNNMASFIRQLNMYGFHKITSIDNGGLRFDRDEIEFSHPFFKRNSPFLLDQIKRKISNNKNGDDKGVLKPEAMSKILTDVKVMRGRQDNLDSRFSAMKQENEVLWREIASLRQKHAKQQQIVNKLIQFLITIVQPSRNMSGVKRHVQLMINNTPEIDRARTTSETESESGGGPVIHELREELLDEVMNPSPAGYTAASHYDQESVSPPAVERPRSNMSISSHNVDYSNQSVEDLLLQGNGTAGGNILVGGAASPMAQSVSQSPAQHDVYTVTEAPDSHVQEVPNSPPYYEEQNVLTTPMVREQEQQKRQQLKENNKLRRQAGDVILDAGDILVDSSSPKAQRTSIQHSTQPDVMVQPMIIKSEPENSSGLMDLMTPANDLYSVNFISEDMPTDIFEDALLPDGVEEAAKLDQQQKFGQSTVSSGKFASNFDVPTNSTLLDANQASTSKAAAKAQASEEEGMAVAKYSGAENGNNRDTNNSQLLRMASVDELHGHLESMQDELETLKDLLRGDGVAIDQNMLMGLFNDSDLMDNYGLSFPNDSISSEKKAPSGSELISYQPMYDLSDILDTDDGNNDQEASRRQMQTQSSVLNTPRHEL

B1: hHSF2-R5-2 (structured_RNA)
RNA: GGGAAUGGAUCCACAUCUACGAAUUCAAUCAAGUCCCCAGACUCAGCAACACUGGACAGCGAUAUGCAGAUAACCAAGACCAAUUCACUCCAGUUCACUGCAGACUUGACGAAGCUU
B2: hHSF1-R5-1 (structured_RNA)
RNA: GGGAAUGGAUCCACAUCUACGAAUUCCACUCCAUAGUAUCUAGAAGCCCUGCCGAAAACGAGAGCGCUUACGCUUAUAAAUGAUCAACCUACCUCGUUCACUGCAGACUUGACGAAGCUU

Tests used:
Assay in all cases: EMSA
GST-hHSF1 (human) = molecular target: T1, GST-hHSF1 (human); details: binding buffer ([…], room temperature 2 h
GST-hHSF2 (human) = molecular target: T2, GST-hHSF2 (human); details: binding buffer ([…], room temperature 2 h
dHSF = molecular target: T3, dHSF

| Molecule | Kd (GST-hHSF1 (human)) | Kd (GST-hHSF2 (human)) | Kd (dHSF) |
| --- | --- | --- | --- |
| GGGAAUGGAUCCACAUCUACGAAUUCAAUCAAGUCCCCAGACUCAGCAACACUGGACAGCGAUAUGCAGAUAACCAAGACCAAUUCACUCCAGUUCACUGCAGACUUGACGAAGCUU [hHSF2-R5-2] | < 20 nM | < 20 nM |  |
| GGGAAUGGAUCCACAUCUACGAAUUCCACUCCAUAGUAUCUAGAAGCCCUGCCGAAAACGAGAGCGCUUACGCUUAUAAAUGAUCAACCUACCUCGUUCACUGCAGACUUGACGAAGCUU [hHSF1-R5-1] | < 20 nM | < 20 nM |  |
| B1 |  |  | ~70 nM |
| B2 |  |  | ~70 nM |
